Drawing on patent US20130109618, this text covers Kd for one substance.

Data set [1] relates to AghTat (all six Arg replaced by Agh) (HIV-1?). The data set can be described thus: EMSA. The conditions noted are these: apparent; with 10 ug/mL poly(dI-dC); 50 mM Tris-HCl pH 7.4, 50 mM KCl. In general terms: Mobility shift assays separate free from complexed probe on a gel.
Data set [2] deals with Tat-Cit49 (HIV-1?). The data set can be described thus: EMSA. The conditions noted are these: with 10 ug/mL poly(dI-dC), 25 C.
For data set [3], the system named is AgbTat (all six Arg replaced by Agb) (HIV-1?). The data set can be described thus: EMSA. The conditions noted are these: apparent; with 10 ug/mL poly(dI-dC); 50 mM Tris-HCl pH 7.4, 50 mM KCl.
In data set [4] the test system is ArgTat (Tat(47-57), Tat-Arg) (HIV-1?). The data set can be described thus: EMSA.
In data set [5] the test system is Ac-Agp57-Tat(47-57)-NH2 (HIV-1?). As to the kind of experiment: EMSA. The conditions noted are these: with 10 ug/mL poly(dI-dC); unit inferred, inferred nM from comparison with 67 ± 19.
Data set [6] has as its system Tat-Cit52 (HIV-1?). As to the kind of experiment: EMSA. The conditions noted are these: with 10 ug/mL poly(dI-dC), 25 C.
In data set [7] the test system is Tat-Cit56 (HIV-1?). The data set can be described thus: EMSA. The conditions noted are these: with 10 ug/mL poly(dI-dC), 25 C.
Data set [8] relates to Tat-Cit53 (HIV-1?). As to the kind of experiment: EMSA. The conditions noted are these: with 10 ug/mL poly(dI-dC), 25 C.
Data set [9] has as its system Tat-Cit55 (HIV-1?). As to the kind of experiment: EMSA. The conditions noted are these: with 10 ug/mL poly(dI-dC), 25 C.
Data set [10] relates to Tat-Cit57 (HIV-1?). As to the kind of experiment: EMSA. The conditions noted are these: with 10 ug/mL poly(dI-dC), 25 C.
The test system of data set [11] is AghTat (all six Arg replaced by Agh) (HIV-1?). The data set can be described thus: FP. The conditions noted are these: apparent; 1:1 fit; 50 mM Tris-HCl pH 7.4, 20 mM KCl, 0.02% Tween-20, room temperature.
Data set [12] concerns Tat-Cit49 (HIV-1?). As to the kind of experiment: FP. The conditions noted are these: 50 mM Tris-HCl pH 7.4, 20 mM KCl, 0.02% Tween-20, room temperature.
Data set [13] relates to AgbTat (all six Arg replaced by Agb) (HIV-1?). As to the kind of experiment: FP. The conditions noted are these: apparent; 1:1 fit; 50 mM Tris-HCl pH 7.4, 20 mM KCl, 0.02% Tween-20, room temperature.
In data set [14] the test system is ArgTat (Tat(47-57), Tat-Arg) (HIV-1?). The data set can be described thus: FP. The conditions noted are these: apparent; 1:1 fit; 50 mM Tris-HCl pH 7.4, 20 mM KCl, 0.02% Tween-20, room temperature, 25 nM RNA.
For data set [15], the system named is Tat-Cit52 (HIV-1?). The data set can be described thus: FP. The conditions noted are these: 50 mM Tris-HCl pH 7.4, 20 mM KCl, 0.02% Tween-20, room temperature.
Data set [16] relates to Tat-Cit56 (HIV-1?). The data set can be described thus: FP. The conditions noted are these: 50 mM Tris-HCl pH 7.4, 20 mM KCl, 0.02% Tween-20, room temperature.
In data set [17] the test system is Tat-Cit53 (HIV-1?). The data set can be described thus: FP. The conditions noted are these: 50 mM Tris-HCl pH 7.4, 20 mM KCl, 0.02% Tween-20, room temperature.
The test system of data set [18] is Tat-Cit55 (HIV-1?). The data set can be described thus: FP. The conditions noted are these: 50 mM Tris-HCl pH 7.4, 20 mM KCl, 0.02% Tween-20, room temperature.
The subject of data set [19] is Tat-Cit57 (HIV-1?). The data set can be described thus: FP. The conditions noted are these: 50 mM Tris-HCl pH 7.4, 20 mM KCl, 0.02% Tween-20, room temperature.

For the substance HIV TAR RNA (F-TAR-RNA), the Kd in [1] amounted to 450 nM; in data set [2], 138 nM; in data set [3], 31 nM; in data set [4], 67 nM; in data set [5] it was 56 nM; in data set [6], 235 nM. For the same substance, the Kd was 164 nM in data set [7]; 344 nM in data set [8]; 279 nM in data set [9]; 146 nM in data set [10]; 36 nM in data set [11]; 94 nM in [12]. Moreover, the Kd is 32 nM in data set [13]; 25 nM in data set [14]; 116 nM in data set [15]; 55 nM in data set [16]; 102 nM in [17]; 99 nM in data set [18]. Besides, in data set [19], the Kd is 49 nM.
